Reference: the supplement of paper PMC11865577

The sequences below were run on TO-3-N3-2 (biotin conjugate) (assay: pull-down binding Z-score (relative to library population); higher = stronger binding). Conditions: RNA library: Library-2.
Method in brief: (§1)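 To score binding, a beads-only signal was subtracted, barcoded replicate probes were averaged with the highest and lowest dropped, and the value was converted to a Z-score using the library mean and standard deviation. The input was 1 μg of Cy5- or Cy3-end-labelled RNA library, heat-folded in phosphate/NaCl/KCl buffer and mixed for 60 min at 25 °C with streptavidin beads carrying 100 pmol of biotin-conjugated small molecule. Bound RNA was eluted in hot SDS and hybridised to a DNA barcode microarray at 55.5 °C for 20 h.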
For “UGAGUACAUUAUUUAUGAUUAAUCA [hsa-mir-376a-1]”, the “pull-down binding Z-score” value was -0.0505.
UGAGUGAUGACUCAGGCGACUCCA [hsa-mir-338] was tested, and the “pull-down binding Z-score” value was -0.0635.
UGAGUGCCGACUGGCGCCUG [hsa-mir-4750] was tested, and the “pull-down binding Z-score” value was -0.448.
UGAGUGCUAUUUCAGUGCAACA [hsa-mir-362] was tested, and the “pull-down binding Z-score” value was 0.108.
“UGAGUGGCAUAAUCAGAGUACAAUUUGAGUCAUGCCCAUACAUCA [hsa-mir-23c]” was tested, and the “pull-down binding Z-score” value was 0.0374.
UGAGUUUA [hsa-mir-451a] was tested, and the “pull-down binding Z-score” value was -0.207.
For “UGAUCAUUAUAUGUAUGAUGAGAUCAU [hsa-mir-4528]”, the “pull-down binding Z-score” value was -0.131.
For “UGAUUUGUGACUUAAGAUUAAAAUCA [hsa-mir-23b]”, the “pull-down binding Z-score” value was 0.0381.
For “UGCAAAUGCAAAGUUGGCUUUUGCA [hsa-mir-3680-2_3680-1]”, the “pull-down binding Z-score” value was -0.253.
For “UGCACCACUCUCCCUGUGAUGAGGUGAA [hsa-mir-4786]”, the “pull-down binding Z-score” value was -0.354.
In the case of “UGCACCAGUUCUGGCCGCUGGUGGA [hsa-mir-4683]”, the “pull-down binding Z-score” value is reported as -0.295.
In the case of UGCAGAUGUGGACUGCUAAAUGCA [hsa-mir-1253], the “pull-down binding Z-score” value is reported as -0.171.
For UGCAGUAUCCGCUGUUGCUGCU [hsa-mir-6132], the “pull-down binding Z-score” value was -0.341.
For “UGCAGUGAGCAACCUACACAACUGCA [hsa-mir-5589]”, the “pull-down binding Z-score” value was -0.317.
For “UGCAGUGCUGGGCAUGGGCUUCUCG [hsa-mir-3677]”, the “pull-down binding Z-score” value was 0.328.
In the case of “UGCAGUUAGUGAAGCAGCUUAGAAUCUACUGCC [hsa-mir-18b]”, the “pull-down binding Z-score” value is reported as 0.625.
UGCAGUUCUGUUGGGUGACAGCA [hsa-mir-6499] was tested, and the “pull-down binding Z-score” value was -0.0248.
With UGCAUAAAUGAAGCUGAAUGA [hsa-mir-6134] the “pull-down binding Z-score” value was 0.378.
With “UGCCACCCAGCCCUGCAGAGCCCCUGACUC [hsa-mir-6814]” the “pull-down binding Z-score” value was 0.422.
In the case of UGCCAUACUUUUAACGGCA [hsa-mir-548i-4], the “pull-down binding Z-score” value is reported as -0.272.
“UGCCAUUAAAAGUAAUGGCA [hsa-mir-548i-3_548i-2_548i-1]” was tested, and the “pull-down binding Z-score” value was -0.048.
In the case of UGCCAUUACUCUCAGUGGCA [hsa-mir-548y], the “pull-down binding Z-score” value is reported as -0.564.
In the case of UGCCCUAGCGGCU [hsa-mir-4268], the “pull-down binding Z-score” value is reported as -0.708.
With UGCCCUGGGGCCGUCCCUGCGCA [hsa-mir-1909] the “pull-down binding Z-score” value was 0.143.
With “UGCCUACUACUGAUGACAUACAAUGUAAGUGCUCAUUUAGGCG [hsa-mir-5696]” the “pull-down binding Z-score” value was -0.289.
In the case of UGCCUCUCGGGGU [hsa-mir-6073], the “pull-down binding Z-score” value is reported as 0.15.
For “UGCCUUGUAGCAUUCAGGUCAAGCA [hsa-mir-103a-2]”, the “pull-down binding Z-score” value was -0.378.
“UGCGUUAGGAUUUCUGUAUCAUCCUCCUAACGCA [hsa-mir-3166]” was tested, and the “pull-down binding Z-score” value was 0.141.
“UGCUAUUACUUGUAUUUAUUUGUAAUGCA [hsa-mir-548ab]” was tested, and the “pull-down binding Z-score” value was -0.88.
UGCUAUUAGAAAGUAAUGGCA [hsa-mir-548ba] was tested, and the “pull-down binding Z-score” value was 0.507.

What follows are sequences tested on TO-N3 (biotin conjugate) in the same assay as above. Conditions: RNA library: Library-2.
Method in brief: as §1
For UCUUCCCAAAGUUGAGAAAA [hsa-mir-320d-1], the “pull-down binding Z-score” value was -0.746.
With UCUUCCCAGAAUUGGGAAAA [hsa-mir-320c-2] the “pull-down binding Z-score” value was -1.33.
With UCUUCCCAGAGUCAGGAAAA [hsa-mir-320c-1] the “pull-down binding Z-score” value was -0.0041.
In the case of UCUUCCCGGAGUCGGGAAAA [hsa-mir-320a], the “pull-down binding Z-score” value is reported as -0.187.
In the case of UCUUCUUGGAGUCAGGAAAA [hsa-mir-320d-2], the “pull-down binding Z-score” value is reported as -0.663.
With UCUUCUUUUGGAAGGAAGA [hsa-mir-3122] the “pull-down binding Z-score” value was -0.591.
UCUUGAAUUUUUGCCAGUUCAAGA [hsa-mir-5197] was tested, and the “pull-down binding Z-score” value was -1.33.
In the case of “UCUUGGUGCCACCAUUGAGAACGCCAGGA [hsa-mir-492]”, the “pull-down binding Z-score” value is reported as -0.279.
For UCUUUCAUUUUGGAUUUGACU [hsa-mir-766], the “pull-down binding Z-score” value was -0.0798.
For “UCUUUGGUAAUAAGGUUUGGCAAAGA [hsa-mir-576]”, the “pull-down binding Z-score” value was 0.862.
With UGAAAGGUUUUUUCUCUCA [hsa-mir-4797] the “pull-down binding Z-score” value was -0.402.
For “UGAACAGUGAUUGGUUUCCGCUUUGUUCA [hsa-mir-27b]”, the “pull-down binding Z-score” value was 0.133.
For “UGAAGAAGAGUAUUGAUUGUGCUGUUCG [hsa-mir-6788]”, the “pull-down binding Z-score” value was 0.494.
For “UGAAGCCCCGAGAUGCCUCACGUCUUCA [hsa-mir-6802]”, the “pull-down binding Z-score” value was 0.243.
UGAAGGUCACCAUGUUCUCCUUG [hsa-mir-3187] was tested, and the “pull-down binding Z-score” value was 0.145.
For UGAAUAUGUAAUAUAAGUGUAUUG [hsa-mir-450b], the “pull-down binding Z-score” value was 0.261.
For UGAAUUGAAAUGCGUUACAUUCA [hsa-mir-95], the “pull-down binding Z-score” value was -0.0852.
In the case of “UGACUACUUCGAAAAUGGGAAGUAGACA [hsa-mir-7849]”, the “pull-down binding Z-score” value is reported as 0.00324.
UGACUCAGAUCU [hsa-mir-759] was tested, and the “pull-down binding Z-score” value was -0.271.
“UGAGACCUGGUGCAGAACGGGAAGGCGA [hsa-mir-551b]” was tested, and the “pull-down binding Z-score” value was 1.23.
For “UGAGCAGGCCCAGAACCCAGCUCGUGCUCA [hsa-mir-6794]”, the “pull-down binding Z-score” value was 0.56.
“UGAGCAGGGUCCACACCAAGUCGUGUUCA [hsa-mir-27a]” was tested, and the “pull-down binding Z-score” value was 1.14.
For “UGAGCAUUCUAGCAGCAGUUUGAUGAUCA [hsa-mir-6516]”, the “pull-down binding Z-score” value was -0.394.
With UGAGCAUUUUUACUGAAUUGCCA [hsa-mir-6715a] the “pull-down binding Z-score” value was -0.738.
“UGAGCUGUGAUGUUGCUCUCGAGCUGG [hsa-mir-769]” was tested, and the “pull-down binding Z-score” value was 1.02.
For “UGAGGAGCUUAGCAAGUAGCUAAGGCCAGA [hsa-mir-4517]”, the “pull-down binding Z-score” value was 0.339.
With UGAGGAGUAGAACACUCCUUA [hsa-mir-491] the “pull-down binding Z-score” value was -0.649.
In the case of UGAGGUACUUCCUUC [hsa-mir-1205], the “pull-down binding Z-score” value is reported as 0.104.
In the case of UGAGGUUUACUAUGGAACCUCA [hsa-mir-4465], the “pull-down binding Z-score” value is reported as -0.958.
For “UGAGUACAUUAUUUAUGAUUAAUCA [hsa-mir-376a-1]”, the “pull-down binding Z-score” value was -0.978.
UGAGUGAUGACUCAGGCGACUCCA [hsa-mir-338] was tested, and the “pull-down binding Z-score” value was 0.461.
UGAGUGCCGACUGGCGCCUG [hsa-mir-4750] was tested, and the “pull-down binding Z-score” value was 0.0638.
With UGAGUGCUAUUUCAGUGCAACA [hsa-mir-362] the “pull-down binding Z-score” value was 0.821.
“UGAGUGGCAUAAUCAGAGUACAAUUUGAGUCAUGCCCAUACAUCA [hsa-mir-23c]” was tested, and the “pull-down binding Z-score” value was -0.271.
With UGAGUUUA [hsa-mir-451a] the “pull-down binding Z-score” value was -0.22.
With “UGAUCAUUAUAUGUAUGAUGAGAUCAU [hsa-mir-4528]” the “pull-down binding Z-score” value was -0.54.
In the case of “UGAUUUGUGACUUAAGAUUAAAAUCA [hsa-mir-23b]”, the “pull-down binding Z-score” value is reported as -0.499.
With “UGCAAAUGCAAAGUUGGCUUUUGCA [hsa-mir-3680-2_3680-1]” the “pull-down binding Z-score” value was -0.954.
For “UGCACCACUCUCCCUGUGAUGAGGUGAA [hsa-mir-4786]”, the “pull-down binding Z-score” value was -0.255.
With “UGCACCAGUUCUGGCCGCUGGUGGA [hsa-mir-4683]” the “pull-down binding Z-score” value was 0.104.
UGCAGAUGUGGACUGCUAAAUGCA [hsa-mir-1253] was tested, and the “pull-down binding Z-score” value was -0.275.
UGCAGUAUCCGCUGUUGCUGCU [hsa-mir-6132] was tested, and the “pull-down binding Z-score” value was -0.105.
With “UGCAGUGAGCAACCUACACAACUGCA [hsa-mir-5589]” the “pull-down binding Z-score” value was -0.0697.
With “UGCAGUGCUGGGCAUGGGCUUCUCG [hsa-mir-3677]” the “pull-down binding Z-score” value was 1.49.
